Consider three molecules from patent US20060127407A1 (IMMUNOGEN, published 2006).

Assay [1] concerns the target T1, alphaV subunit integrins on human tumor cells (HT29, A549, A2780) (human, UniProt P06756 31-1048).
T1 construct: whole, on cells; the cell line of each number is named under assay; also called alphaV integrins on living cells
The assay is described as follows: flow cytometry on HT29 human colon carcinoma cells, FITC anti-human antibody. The procedure:
(§1) Cells: HT29 human colon carcinoma and A549 human lung carcinoma cells were from ATCC and maintained in alphaMEM supplemented with 10% fetal bovine serum (FBS). A2780 human ovarian carcinoma cells were obtained from National Cancer Institute. A2780 cells were cultured in RPMI 1640 medium containing 10% FBS. […] Absence of primary antibody or substitution of primary antibody with isotype matched antibody served as negative controls. Cells were immediately analyzed with a FACS Scan II flow cytometer (Becton Dickinson, Mountain View, Calif.). Data was analyzed with GraphPad Prism software using non-liner regression to determine the concentration at 50% maximal binding (Table 7).
(Flow cytometry measures light scatter and fluorescence of single cells or particles in a stream.)

In assay [2] the target is T2, alphaVbeta3 integrin (human, UniProt P06756 31-1048; P05106 27-788).
T2 construct: Purified integrin coated on plates; also called αvβ3; αVβ3
T2 sequence (P06756 31-1048, chain 1 of 2): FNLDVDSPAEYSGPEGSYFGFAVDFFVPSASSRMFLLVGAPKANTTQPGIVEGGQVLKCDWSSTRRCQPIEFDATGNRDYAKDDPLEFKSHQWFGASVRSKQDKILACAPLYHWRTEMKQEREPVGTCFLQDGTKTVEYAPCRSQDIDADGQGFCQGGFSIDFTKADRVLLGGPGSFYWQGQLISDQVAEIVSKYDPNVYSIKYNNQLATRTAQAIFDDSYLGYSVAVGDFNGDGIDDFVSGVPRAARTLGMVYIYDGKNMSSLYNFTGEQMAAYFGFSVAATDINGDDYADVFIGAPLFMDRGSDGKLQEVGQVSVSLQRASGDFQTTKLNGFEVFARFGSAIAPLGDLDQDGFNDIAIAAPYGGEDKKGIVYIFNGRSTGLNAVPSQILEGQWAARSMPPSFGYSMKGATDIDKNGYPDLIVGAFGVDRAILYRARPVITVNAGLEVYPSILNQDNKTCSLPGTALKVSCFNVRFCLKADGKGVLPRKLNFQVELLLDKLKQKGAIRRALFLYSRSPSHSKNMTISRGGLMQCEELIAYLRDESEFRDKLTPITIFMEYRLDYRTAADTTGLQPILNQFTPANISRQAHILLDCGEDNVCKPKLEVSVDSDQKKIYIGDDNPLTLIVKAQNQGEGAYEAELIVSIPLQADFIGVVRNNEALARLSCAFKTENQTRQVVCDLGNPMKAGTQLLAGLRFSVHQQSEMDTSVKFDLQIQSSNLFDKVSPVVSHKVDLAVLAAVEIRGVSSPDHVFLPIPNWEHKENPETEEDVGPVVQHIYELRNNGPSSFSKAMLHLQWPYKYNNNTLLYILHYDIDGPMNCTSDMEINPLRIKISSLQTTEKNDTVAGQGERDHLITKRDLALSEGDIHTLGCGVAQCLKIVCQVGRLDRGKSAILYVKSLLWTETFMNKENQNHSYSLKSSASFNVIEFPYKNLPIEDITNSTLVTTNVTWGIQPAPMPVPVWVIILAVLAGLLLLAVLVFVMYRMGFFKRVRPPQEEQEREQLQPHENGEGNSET
T2 sequence (P05106 27-788, chain 2 of 2): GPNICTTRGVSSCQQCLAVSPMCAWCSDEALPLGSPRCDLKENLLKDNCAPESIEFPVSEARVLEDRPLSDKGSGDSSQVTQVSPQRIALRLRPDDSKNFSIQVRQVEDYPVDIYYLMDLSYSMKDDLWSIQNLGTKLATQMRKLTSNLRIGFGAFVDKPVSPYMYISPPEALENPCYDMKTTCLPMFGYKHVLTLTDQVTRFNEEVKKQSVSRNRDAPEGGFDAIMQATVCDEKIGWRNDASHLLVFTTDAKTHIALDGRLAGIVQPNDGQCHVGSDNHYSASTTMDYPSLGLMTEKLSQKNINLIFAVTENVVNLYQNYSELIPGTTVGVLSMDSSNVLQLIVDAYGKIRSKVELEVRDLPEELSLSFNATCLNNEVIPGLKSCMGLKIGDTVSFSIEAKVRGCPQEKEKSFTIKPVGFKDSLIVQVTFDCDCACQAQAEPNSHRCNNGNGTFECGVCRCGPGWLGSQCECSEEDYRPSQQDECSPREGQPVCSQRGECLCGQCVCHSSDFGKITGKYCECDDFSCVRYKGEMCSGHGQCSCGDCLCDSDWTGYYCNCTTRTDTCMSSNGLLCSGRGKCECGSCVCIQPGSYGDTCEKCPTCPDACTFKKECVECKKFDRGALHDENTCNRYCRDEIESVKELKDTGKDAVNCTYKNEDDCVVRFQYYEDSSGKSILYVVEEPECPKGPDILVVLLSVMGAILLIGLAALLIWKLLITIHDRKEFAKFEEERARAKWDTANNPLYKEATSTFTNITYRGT
The assay is described as follows: saturation binding curve, 125-I CNTO 95 on αvβ3 coated plates. The procedure:
(§2) A375S2 and M21 cells express both αvβ₃ and αᵥβ₅, HT-29 cells express αvβ5. For comparison, other Mabs capable of binding integrins were used. The Kd was calculated from a saturation binding curve in each case using multiple replicates of multiple lots of antibody.

For assay [3], the target named is T3, alphaVbeta5 integrin (UniProt P06756 31-1048; P18084 24-799).
T3 construct: Purified integrin coated on plates; also called αvβ5; alphaVbetaS protein
T3 sequence (P06756 31-1048, chain 1 of 2): as the sequence (P06756 31-1048, chain 1 of 2) above
T3 sequence (P18084 24-799, chain 2 of 2): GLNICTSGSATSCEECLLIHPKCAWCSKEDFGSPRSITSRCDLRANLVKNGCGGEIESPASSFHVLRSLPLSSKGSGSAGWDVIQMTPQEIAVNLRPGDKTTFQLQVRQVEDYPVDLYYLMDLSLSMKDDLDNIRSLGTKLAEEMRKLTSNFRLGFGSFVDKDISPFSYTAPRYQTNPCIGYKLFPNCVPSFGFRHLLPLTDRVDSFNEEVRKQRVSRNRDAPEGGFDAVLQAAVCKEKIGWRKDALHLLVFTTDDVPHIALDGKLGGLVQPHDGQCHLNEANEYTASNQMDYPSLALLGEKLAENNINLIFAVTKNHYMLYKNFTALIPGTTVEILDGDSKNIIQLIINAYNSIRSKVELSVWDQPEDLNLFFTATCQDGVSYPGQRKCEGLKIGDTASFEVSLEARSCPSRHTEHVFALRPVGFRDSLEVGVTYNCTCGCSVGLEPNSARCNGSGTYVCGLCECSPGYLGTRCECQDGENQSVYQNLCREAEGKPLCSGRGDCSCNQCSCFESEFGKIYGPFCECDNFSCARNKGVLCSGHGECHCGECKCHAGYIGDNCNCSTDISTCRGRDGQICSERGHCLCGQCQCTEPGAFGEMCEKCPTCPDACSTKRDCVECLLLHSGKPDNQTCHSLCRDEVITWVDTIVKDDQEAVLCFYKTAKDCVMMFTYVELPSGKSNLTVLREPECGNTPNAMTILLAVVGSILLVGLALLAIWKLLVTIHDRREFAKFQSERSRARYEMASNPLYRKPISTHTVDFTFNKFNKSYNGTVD
In words: ELISA on alphaVbeta5 protein, absorbance against concentration. In general terms: ELISA stands for enzyme-linked immunosorbent assay.

Assay [4] deals with T1, alphaV subunit integrins on human tumor …. In words: flow cytometry on A549 human lung carcinoma cells, FITC anti-human antibody. The procedure: as §1
For assay [5], the target named is T3, alphaVbeta5 integrin. In words: saturation binding curve, 125-I CNTO 95 on αvβ5 coated plates. The procedure:
as §2

The target of assay [6] is T2, alphaVbeta3 integrin. The assay is described as follows: ELISA on alphaVbeta3 protein, absorbance against concentration.
Assay [7] concerns the target T2, alphaVbeta3 integrin. The assay is described as follows: ELISA, purified antibody on alphaVbeta3.
Assay [8] has as its target T1, alphaV subunit integrins on human tumor …. The assay is described as follows: flow cytometry on A2780 human ovarian carcinoma cells, FITC anti-human antibody. The procedure:
as §1

In assay [9] the target is T2, alphaVbeta3 integrin. The assay is described as follows: saturation binding curve on αvβ3 coated plates.

T1 sequence (P06756 31-1048): as the sequence (P06756 31-1048, chain 1 of 2) above

B1: Monoclonal antibody CNTO 95 (antibody, IgG1, V domains shown)
VH: QVQLVESGGGVVQPGRSRRLSCAASGFTFSRYTMHWVRQAPGKGLEWVAVISFDGSNKYYVDSVKGRFTISRDNSENTLYLQVNILRAEDTAVYYCAREARGSYAFDIWGQGTMVTVSS
VL: EIVLTQSPATLSLSPGERATLSCRASQSVSSYLAWYQQKPGQAPRLLIYDASNRATGIPARFSGSGSGTDFTLTISSLEPEDFAVYYCQQRSNWPPFTFGPGTKVDIK
notes: also called C371A; Mab CNTO 95
What is called EC50 is the concentration giving half of the maximal effect. The low end stands for an effect from little substance, the high end for a need for much substance. The Kd is a measure of binding affinity in units of concentration. For B1, the EC50 came to 140 µg/mL in assay [1], 180 µg/mL in assay [4], 0.7 µg/mL with alphaVbeta3 integrin [7] and 170 µg/mL in [8]. In addition, the Kd is 0.21 nM with alphaVbeta3 integrin [2], 0.03 nM in the assay with alphaVbeta5 integrin [3], 0.025 nM with alphaVbeta5 integrin [5] and around 3 nM with alphaVbeta3 integrin [6].

B2: CNTO 364 (CNTO 95-SPP-DM1) (antibody, human IgG1, V domains shown)
VH: B1 VH
VL: B1 VL
modifications: maytansinoid DM1 linked through SPP (disulfide) to amino acid side chains, positions not given
notes: Antibody-drug conjugate of CNTO 95 (human IgG1 kappa); also called CNTO 95-DM1; the conjugate
Turning to B2, the EC50 stood at 190 µg/mL in assay [1], 270 µg/mL in assay [4] and 270 µg/mL in [8]. The results for the Kd in the assay with alphaVbeta5 integrin [3] and in the assay with alphaVbeta3 integrin [6] were 0.035 nM and around 3 nM, respectively.

B3: abciximab (Fab, V domains shown)
VH: EVQLQQSGTVLARPGASVKMSCEASGYTFTNYWMHWVKQRPGQGLEWIGAIYPGNSDTSYIQKFKGKAKLTAVTSTTSVYMELSSLTNEDSAVYYCTLYDGYYVFAYWGQGTLVTVSA
VL: EIVLTQSPVTLSVTPGDSVSLSCRASRDISNNLHWFQQTSHESPRLLIKYASQSMSGIPSRFSGSGSGTDFTLSINSVETEDFGMYFCQQTNSWPYTFGGGTKLEIK
In the case of B3, in the assay with alphaVbeta3 integrin [9], the Kd was 0.25 nM.
